Results as given in PMC4004541, “PEG-Like Nanoprobes: Multimodal, Pharmacokinetically and Optically Tunable Nanomaterials” (PLoS ONE, 2014).

How the values were obtained:
HT-29 cells = test: Non-specific binding (NSB) to HT-29 cells by FACS; format: cell-based, human; conditions: 100 μL of nanoprobes (2 μM) added to 100 μl 2% FBS/DPBS, 30 min at 37 °C, means±1 S.D.
Source text: We next examined the non-specific binding (NSB) of PN’s to HT-29 cells based on the assumption that NSB minimization will correlate with a desirable minimization of post-IV injection retention. As noted above, after diagnostic drugs generate their added information, retention can only increase the risks of delayed toxicity. The attachment of PEG decreased the non-specific binding (NSB) to HT-29 cells, scored as the percent of cells above the cutoff for unstained cells seen with FACS ( Table 1 , column 7).
PN and peptide binding to cells (effect of PEGylation on NSB): HT-29, a human colon carcinoma cell line, was from the American Tissue Culture Collection and maintained according to their instructions. Cells were seeded on 24-well plates at 5X10^5 cells/well in culture medium (RPMI 1640 with 10% FBS) the day before the assay. The day of assay, medium was removed, wells rinsed twice with DPBS (+Ca, +Mg), and 100 μl of 2% FBS / DPBS (+Ca, +Mg) added. 100 μL of Nanoprobes (2 μM) in DPBS (+Ca, +Mg) was added to cells and incubated for 30min at 37 °C. (Probe concentrations were determined spectrophotometrically (783 nm, extinction coefficient of 314 471 cm^-1 M^-1 for IR-783; 497 nm, extinction coefficient of 68 000 cm^-1 M^-1 for Fluorescein; 545 nm, extinction coefficient of 150 000 cm^-1 M^-1 for Cy3). Cells were detached by Trypsin/EDTA and assayed for fluorescence by FACS (BD 7 laser LSR2 for nanoprobes with IR-783; BD 3 laser LSR2 for nanoprobes with Fluorescein or Cy3).
Figure S4: Effect of PEGylation on non-specific binding to cells by single channel FACS. […] Arrows indicates the cutoff for unstained cells.

[1] = Quantum yield of fluorochrome-bearing peptides and PN's; format: physicochemical; conditions: means±1 S.D.
Source text: (The p values showing significances are in Figure S2 in File S1). […] PEG attachment increased quantum yields in all cases, but as discussed below the magnitude of PEG generated improvement varied with the fluorochrome chosen. A mechanism for the PEG improvement of quantum yield is fluorochrome shielding, or the blocking of fluorochrome-fluorochrome interactions that result in quenching.
However, the magnitude of these benefits varied with the fluorochrome selected. […] Previous studies indicated PEGylated, fluorochrome-bearing peptides have absorption spectra in PBS similar to their unstacked absorption spectra in methanol. […] It appears that longer wavelength fluorochromes have stronger fluorochrome/fluorochrome stacking interactions, which result in more quenching, which is blocked by PEG and which gives rise to larger increases in quantum yield.

[2] = Circulating form of PN's: FPLC of sera of injected mice; format: in vivo; conditions: 20 nmoles IV tail vein, nude mice, FPLC at 783 nm
Protocol: To see if the variable PN size could be translated into tunable pharmacokinetics, it was essential to first establish that PN’s circulated at PEG-determined, pre-injection dimensions. Mice were injected with PN’s and FPLC chromatograms of serum samples, taken at various times post injection ( Figures 2D, 2E and 2F ), compared with pre-injection PN samples. By using PN’s absorbing at 783 nm, chromatograms from the sera of injected mice reflect this PN, since there are no compounds in serum that absorb at this wavelength. […] Similarly, peaks for PN(783)6.1 ( Figure 2E ) and PN(783)4.3 ( Figure 2F ) where identical for pre-injection samples and for nanoprobes in the sera of injected mice. Thus, molecular weight of the PEG chosen determines PN dimensions in vitro and those dimensions are maintained after injection.
(§1) At the indicated time, 50 µl of blood was collected with microhematocrit capillary tube (Fisher Scientific) from the tail, and transferred to Eppendorf microcentrifuge tube with anticoagulant (EDTA) coating (Fisher Scientific). Tubes were centrifuged (5000 rpm for 5 min), and the supernatant was injected to the FPLC, a ÄKTA Purifier 10 with SuperdexTM 200 10/300GL column.
as §1, with “μl” for “µl”

[3] = Probe size (volume) by FPLC calibrated with globular protein standards; format: physicochemical; conditions: for Volume FPLC, globular protein equivalent molecular volume: Superdex 200 10/300GL, 0.05 M sodium phosphate, 0.1 M NaCl (0.1% Tween, pH 7.2), 0.8 ml/min, calibrated with globular protein standards; for Volume FPLC Dia. (diameter): globular protein equivalent volume from FPLC converted to spherical diameter by formula (ref 15)
Source text: FPLC chromatograms are shown for PN’s bearing the IR-783 fluorochrome with PEG’s ranging from 2 to 40 kDa ( Figure 2A ). FPLC was calibrated with globular protein standards, and globular protein equivalent molecular volumes (in kDa) were obtained ( Table 1 , column 5). Next, these globular protein equivalent molecular volumes were converted to PN diameters in nm using the relationship: [drawing 1] where M is the molecular weight of a globular protein expressed in daltons. PN diameters ranged from 3.0 to 11.7 nm, which means PN’s can be smaller or larger than albumin (MW = 67 kDa; diameter = 5.4 nm, by the formula above). Thus Table 1 column 5 gives the PN volumes obtained from FPLC expressed in two ways: (i) as the molecular weight in kDa of globular proteins with equivalent volumes, permitting size comparison of PN’s to proteins, and, (ii) as spherical diameters (“Dia.”) in nm, permitting size comparisons of a PN to relative to other nanomaterials. We confirmed the sizes obtained with FPLC by measuring the size of PN(783)11.7 by dynamic light scattering (11.7 nm).
The mass spec of low molecular weight (MW) materials were obtained by MS-ESI Micromass (Waters) and high MW molecules were determined through MALDI-TOF analyses at the Tufts University Core Facility. RP-HPLC (Varian ProStar detector and delivery modules) employed an eluant A (0.1% TFA/water) and eluant B (0.1% TFA and 9.9% water in acetonitrile). Probe size (volume) was determined by FPLC using an ÄKTA Purifier 10 and SuperdexTM 200 10/300GL column (GE Healthcare) with a running buffer of 0.05 M sodium phosphate, 0.1 M NaCl (0.1% Tween, pH 7.2) and flow rate of 0.8 ml/min. Standards (GE Healthcare) were Ferritin, Ribonuclease A, Carbonic Anhydrase, and Conalbumin and Blue Dextran 2000. To obtain probe volumes, Mr (apparent molecular weight based on size exclusion retention) was plotted versus Kav. [drawing 7] , Vt = total volume, Ve = elution volume, Vo = void volume.
PN and peptide characterization: The mass spec of low molecular weights (MW) were obtained by MS-ESI Micromass (Waters) and high MW molecules were determined through MALDI-TOF analyses at the Tufts University Core Facility. RP-HPLC (Varian ProStar detector and delivery modules) employed an eluant A (0.1% TFA /water) and eluant B (0.1% TFA and 9.9% water in acetonitrile). […] Standards (GE Healthcare) were Ferritin, Ribonuclease A, Carbonic Anhydrase, and Conalbumin and Blue Dextran 2000. To obtain probe volumes, Mr (apparent molecular weight based on size exclusion retention) was plotted versus Kav. [picture] , Vt = total volume, Ve = elution volume, Vo = void volume.

Row | Substance | Cell NSB: percent of HT-29 cells above the cutoff for unstained cells (HT-29 cells) | Quant. Yield [1] | Circulating size: FPLC peaks of serum samples after injection versus pre-injection sample [2] | Volume FPLC, globular protein equivalent molecular volume [3] [kDa] | Volume FPLC Dia. (diameter) [3] [nm]
1 | (DOTA)Lys(PEG 5 kDa)-Cys(IR-783) [PN(783)4.3, PEG-like Nanoprobe: 5 kDa PEG, IR-783 fluorochrome, DOTA peptide] | 20±1% | 0.16±0.03 | identical | 35.2 | 4.3
2 | (DOTA)Lys(PEG 30 kDa)-Cys(Fl) [PN(497)10.0, PEG-like Nanoprobe: 30 kDa PEG, fluorescein, DOTA peptide] | 0.1% ±0.1% | 0.60±0.08 |  | 435 | 
3 | (DOTA)Lys(PEG 30 kDa)-Cys(IR-783) [PN(783)10.0, PEG-like Nanoprobe: 30 kDa PEG, IR-783 fluorochrome, DOTA peptide] | 18±1% | 0.16±0.04 | circulates at its pre-injection size | 435.4 | 10.0
